Assay results: US20180037651A1

Target: GPRC5D (MM.1R cells) (UniProt Q9NZD1)
Assay: FACS cell binding; MM.1R cells

EC50: 122 nM
Substance: Fab6300
